Consider 18 molecules from patent US20150132305A1.

Numbering of substitutions follows the chain as printed. No end group written: not given here.

Test [1] concerns the target T1, human Cadherin-11 on cells (Cad-11-expressing 431-D-11 cells; human fibroblast-like synoviocytes) (human) (UniProt P55287).
T1 sequence: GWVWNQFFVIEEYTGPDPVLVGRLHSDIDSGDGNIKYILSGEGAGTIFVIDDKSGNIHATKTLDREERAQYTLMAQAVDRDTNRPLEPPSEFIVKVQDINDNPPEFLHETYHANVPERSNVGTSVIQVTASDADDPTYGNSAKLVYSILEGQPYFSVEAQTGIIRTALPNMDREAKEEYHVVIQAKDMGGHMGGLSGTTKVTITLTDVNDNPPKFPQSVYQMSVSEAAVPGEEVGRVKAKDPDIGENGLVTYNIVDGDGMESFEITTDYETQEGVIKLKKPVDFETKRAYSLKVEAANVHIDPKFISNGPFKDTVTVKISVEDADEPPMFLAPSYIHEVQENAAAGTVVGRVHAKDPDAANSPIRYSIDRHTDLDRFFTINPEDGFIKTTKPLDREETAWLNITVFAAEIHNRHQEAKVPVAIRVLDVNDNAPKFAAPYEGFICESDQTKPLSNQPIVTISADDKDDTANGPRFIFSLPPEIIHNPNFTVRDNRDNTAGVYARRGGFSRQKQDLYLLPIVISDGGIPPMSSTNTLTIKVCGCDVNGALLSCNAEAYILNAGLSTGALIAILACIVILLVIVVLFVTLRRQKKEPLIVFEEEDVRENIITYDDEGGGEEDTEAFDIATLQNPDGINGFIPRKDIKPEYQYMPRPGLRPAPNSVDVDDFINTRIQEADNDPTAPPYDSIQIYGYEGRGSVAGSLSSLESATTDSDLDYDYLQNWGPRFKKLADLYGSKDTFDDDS
The test is described as follows: cell-based or functional assay.

Test [2] deals with T2, recombinant Cad-11 EC1 human IgG1 fusion protein (R&D Systems Cat. No. 1790-CA-050) (human) (UniProt P55287).
T2 sequence: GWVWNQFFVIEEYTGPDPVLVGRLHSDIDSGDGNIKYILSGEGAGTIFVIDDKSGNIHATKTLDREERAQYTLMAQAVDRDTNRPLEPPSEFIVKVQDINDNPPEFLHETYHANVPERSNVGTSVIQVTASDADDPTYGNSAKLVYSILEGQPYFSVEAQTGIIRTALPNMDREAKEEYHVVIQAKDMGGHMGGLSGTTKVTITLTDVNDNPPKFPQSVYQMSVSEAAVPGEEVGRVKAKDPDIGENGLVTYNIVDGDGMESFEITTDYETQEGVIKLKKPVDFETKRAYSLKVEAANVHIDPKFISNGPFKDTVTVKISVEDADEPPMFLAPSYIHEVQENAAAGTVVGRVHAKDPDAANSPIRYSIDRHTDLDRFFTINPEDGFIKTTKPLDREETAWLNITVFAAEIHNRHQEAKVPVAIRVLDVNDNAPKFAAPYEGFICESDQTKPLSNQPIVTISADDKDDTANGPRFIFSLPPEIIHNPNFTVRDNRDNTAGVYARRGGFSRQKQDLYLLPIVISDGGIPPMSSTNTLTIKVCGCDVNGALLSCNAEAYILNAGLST
Put plainly: competition ELISA on coated recombinant human Cad-11 EC1 fusion protein against biotinylated SYN0012 (0.1 µg/ml). Background: In an ELISA, binding on a coated surface is turned into a signal by an enzyme label.

Test [3] has as its target T3, Cad-8 EC1 domain peptide (region overlapping G1-G33 of the Cad-11 EC1 domain) (UniProt P55286).
T3 sequence (peptide, conjugated to biotin, looked up): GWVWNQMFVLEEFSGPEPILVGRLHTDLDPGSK
Put plainly: ELISA on biotin EC1 peptides.

The target of test [4] is Cad-11 EC1 domain peptide, first 33 amino acids (G1-G33), specificity ELISA of Example 5 (human). Put plainly: ELISA on biotin EC1 peptides.
Test [5] concerns the target T4, Cad-11 37-mer peptide linked to BSA (encompasses the Cad-11 immunogen) (human).
T4 sequence (peptide, linked to BSA): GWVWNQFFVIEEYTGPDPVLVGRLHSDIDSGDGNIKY
The test is described as follows: ELISA, BSA-coupled 37-mer cadherin peptide coated at 500 ng/ml, A450.

For test [6] the target is unchanged. Put plainly: ELISA on BSA-coupled 37-mer peptides, 500 ng/ml coat.
In test [7] the target is SDP051 humanized anti-Cad-11 EC1 antibody (Vκ1/VH5). Put plainly: flow cytometry blocking assay: peptide titrated with SDP 051 at 0.5 ug/ml on Cad-11 expressing 431D cells; blocked: binding of SDP051 to cell-surface Cad-11; MFI. (Flow cytometry measures light scatter and fluorescence of single cells or particles in a stream.)
Test [8] concerns the target T4, Cad-11 37-mer peptide linked to BSA (encompasses the Cad-11 immunogen) (human). Put plainly: ELISA on peptide antigen, 50 ng/ml coat; Cad-11 antigen, 50 ng/ml coat.
The target is the same in test [9]. The test is described as follows: ELISA on peptide antigens, 50 ng/ml coat.

B1: human Cad-11-EC1-hIgG2-Fc1 fusion protein (Fc fusion)
chain: FAPERRGHLRPSFHGHHEKGKEGQVLQRSKRGWVWNQFFVIEEYTGPDPVLVGRLHSDIDSGDGNIKYILSGEGAGTIFVIDDKSGNIHATKTLDREERAQYTLMAQAVDRDTNRPLEPPSEFIVKVQRSVECPPCPAPPVAGPSVFLFPPKPKDTLMISRTPEVTCVVVDVSHEDPEVQFNWYVDGMEVHNAKTKPREEQFNSTFRVVSVLTVVHQDWLNGKEYKCKVSNKGLPAPIEKTISKTKGQPREPQVYTLPPSREEMTKNQVSLTCLVKGFYPSDIAVEWESNGQPENNYKTTPPMLDSDGSFFLYSKLTVDKSRWQQGNVFSCSVMHEALHNHYTQKSLSLSPGKVPRLA
B1 gave a Cad-11 mediated cell aggregation in [1] of 3 µg/mL.

B2: H1M1 anti-Cad-11 EC1 domain antibody (hybridoma H1M1, ATCC PTA-9699) (antibody, V domains shown)
VH: EVQLQQSGPELVKPGASVKISCKASGYSFTGYFMNWVKQSHGKSLEWIGRINPYTGDTFYNQKFKGKATLTVDKSSSTAHMELLSLSSEDSAVYYCGRLGSRYWYFDVWGAGTTVTVSS
VL: DVLMTQTPLSLPVSLGDQASISCRSSQSIIHSNGNTYLEWYLQKPGQSPKLLIYKVSNRFSGVPDRFWTFGGGTKLEIKTGSGSGTDFTLKISRVEAEDLGVYYCFQGSHVPWTFGGGTKLEIK
In the case of B2, in [2], the IC50 (read off the curve) amounted to 0.2 µg/mL. In test [1], the inhibition of FLS invasion into MATRIGEL-coated membrane was 80%. Besides, the fold lower binding than to Cad-11 in test [3] amounted to 1500 fold. In test [4], the fold higher binding to Cad-11 than to any of the other cadherins tested is greater than 100 fold.

B3: SDP011 humanized anti-Cad-11 EC1 antibody (Vκ1/VH1) (antibody, IgG4, V domains shown)
VH: B2 VH with Q5V, V12K, S40A, K43Q, S44G, K67R, H80Y, L84V, A111Q
VL: DVLMTQTPLSSPVTLGQPASISCRSSQSIIHSNGNTYLEWYLQKPGQSPQLLIYKVSNRFSGVPDRFTGSGSGTDFTLKISRVEAEDVGVYYCFQGSHVPWTFGQGTKLEIK
For orientation: EC50 (read off the curve) means the concentration needed to bring the measured effect to its halfway point. Read a low EC50 (read off the curve) as greater potency. For the molecule B3, in [5], the EC50 (read off the curve) came out at 0.07 µg/mL.

B4: SDP061 humanized anti-Cad-11 EC1 antibody (Vκ2/VH1) (antibody, IgG4, V domains shown)
VH: B2 VH with Q5V, V12K, S40A, K43Q, S44G, K67R, H80Y, L84V, A111Q
VL: B3 VL with T68S
On to B4, for which, in [5], the EC50 (read off the curve) was determined as 0.05 µg/mL. For the same molecule, the fold greater binding to the Cad-11 antigen than to the related antigens from the other cadherins in [6] is greater than 20 fold.

B5: SDP111 humanized anti-Cad-11 EC1 antibody (Vκ3/VH1) (antibody, IgG4, V domains shown)
VH: B2 VH with Q5V, V12K, S40A, K43Q, S44G, K67R, H80Y, L84V, A111Q
VL: B3 VL with L3V, T68S
In [5], B5 returned an EC50 (read off the curve) of 0.07 µg/mL.

B6: Cad-11-EC1-5-Fc fusion protein (5 extracellular domains of Cad-11 fused to the human IgG2 hinge, CH2 and CH3 domains) (Fc fusion, not shown: a dimerising Fc or GST)
chain: T2 sequence
B6 showed a Cad-11 mediated cell aggregation in test [1] of 100 µg/mL. Turning to GWVWNQFFVIEEYTGPDPVLVGRLHSDIDSGDGNIKY (also: linked to BSA) [Cad-11 37-mer peptide linked to BSA (encompasses the Cad-11 immunogen)], the IC50 (read off the curve) in test [7] was determined as 0.2 µg/mL.

B7: SDP081 humanized anti-Cad-11 EC1 antibody (Vκ2/VH3) (antibody, IgG4, V domains shown)
VH: EVQLVQSGAEVKKPGASVKISCKASGYSFTGYFMNWVRQAPGQGLEWIGRINPYTGDTFYNQKFKGRATLTVDKSTSTAYMELSSLRSEDTAVYYCGRLGSRYWYFDVWGQGTTVTVSS
VL: B3 VL with T68S
B7 came in with an EC50 (read off the curve) in test [5] of 0.07 µg/mL.

B8: SDP131 humanized anti-Cad-11 EC1 antibody (Vκ3/VH3) (antibody, IgG4, V domains shown)
VH: B7 VH
VL: B3 VL with L3V, T68S
In [5], B8 displayed an EC50 (read off the curve) of 0.07 µg/mL.

B9: SDP121 humanized anti-Cad-11 EC1 antibody (Vκ3/VH2) (antibody, IgG4, V domains shown)
VH: B7 VH with R38K
VL: B3 VL with L3V, T68S
In [5], B9 registered a concentration for a half-maximal effect (EC50 (read off the curve)) of 0.05 µg/mL. The EC50 (read off the curve) values of the last two molecules are within 1.5-fold of each other.

B10: SDP071 humanized anti-Cad-11 EC1 antibody (Vκ2/VH2) (antibody, IgG4, V domains shown)
VH: B7 VH with R38K
VL: B3 VL with T68S
In turn, B10 showed a fold greater binding to the Cad-11 antigen than to the related antigens from the other cadherins in test [6] greater than 20 fold.

B11: SDP091 humanized anti-Cad-11 EC1 antibody (Vκ2/VH4) (antibody, IgG4, V domains shown)
VH: B7 VH with I20V, L70I
VL: B3 VL with T68S
As to B11, the EC50 (read off the curve) in test [5] amounted to 0.07 µg/mL.

B12: SDP031 humanized anti-Cad-11 EC1 antibody (Vκ1/VH3) (antibody, IgG4, V domains shown)
VH: B7 VH
VL: B3 VL
B12 had a concentration giving a half-maximal response (EC50 (read off the curve)) in [5] of 0.06 µg/mL. The molecule also had a fold greater binding to the Cad-11 antigen than to the related antigens from the other cadherins in test [6] greater than 20 fold.

B13: SDP141 humanized anti-Cad-11 EC1 antibody (Vκ3/VH4) (antibody, IgG4, V domains shown)
VH: B7 VH with I20V, L70I
VL: B3 VL with L3V, T68S
The molecule B13 had an EC50 (read off the curve) in test [5] of 0.06 µg/mL.

B14: SDP021 humanized anti-Cad-11 EC1 antibody (Vκ1/VH2) (antibody, IgG4, V domains shown)
VH: B7 VH with R38K
VL: B3 VL
Take B14: the EC50 (read off the curve) in test [5] amounted to 0.06 µg/mL.

B15: SDP151 humanized anti-Cad-11 EC1 antibody (Vκ3/VH5) (antibody, IgG4, V domains shown)
VH: B7 VH with I20V, A68V, L70I
VL: B3 VL with L3V, T68S
Consider B15, for which, in [5], the EC50 (read off the curve) turned out to be 0.06 µg/mL.

B16: SDP041 humanized anti-Cad-11 EC1 antibody (Vκ1/VH4) (antibody, IgG4, V domains shown)
VH: B7 VH with I20V, L70I
VL: B3 VL
The molecule B16 yielded an EC50 (read off the curve) in test [5] of 0.06 µg/mL.

B17: SDP051 humanized anti-Cad-11 EC1 antibody (Vκ1/VH5) (antibody, IgG4, V domains shown)
VH: B7 VH with I20V, A68V, L70I
VL: B3 VL
A word on the EC50: it is the concentration that produces a half-maximal response. As for B17, the concentration giving a half-maximal response (EC50 (read off the curve)) in test [5] was determined as 0.04 µg/mL. In [6], the fold greater binding to the Cad-11 antigen than to the related antigens from the other cadherins is greater than 100 fold. In test [8], this molecule showed an EC50 of 0.0068 µg/mL. In [9], this molecule registered a binding differential, Cad-11 against Cad-8 greater than 200 fold.
